{
  "source": "paper PMC12256440",
  "target": "MSC membrane glycoproteins (plasminogen membrane receptors) (human (endogenous in MSCs))",
  "data": [
    {"substance": "Glu-plasminogen (natural protein)", "values": [
      {"measurement": "Michaelis-Menten constant of plasmin formation on scuPA-treated MSCs, plasminogen 0-2 μM, chromogenic substrate CBS0065", "value": 0.5, "unit": "µM"}
    ]}
  ]
}
